Laboratory results reported in US20210371527A1 (published 2021).
Where two headings read alike, the source gives them in different places.

How the values were obtained:
[1] = molecular target: T1, human CD4 on HPB-ALL cells (UniProt P01730 26-458); assay: flow cytometry
[2] = molecular target: T1, human CD4 on HPB-ALL cells; assay: flow cytometry; remark: listed apart in the source

EC50 [1]	EC50 [2]	Binder
3.05 nM	–	deferoxamine conjugated humanized IAB41-1 minibody (other, deferoxamine (Df) chelator conjugated; sites of conjugation not stated) EIVLTQSPATLSLSPGERATLSCSARSSVSYLYWYQQKPGQAPRLLIYDTSNLASGIPDRFSGSGSGTDFTLTISRLEPEDAAVYYCQQWSDYPLTFGGGTKLEIKGSTSGGGSGGGSGGGGSSQVQLVQSGAEVKKPGASVKVSCKASGYSFANYWMHWVRQAPGQRLEWIGALYPGNVDTTYNQKFQGRVTITRDTSASTAYMELSSLRSEDTAVYYCTRMGTTLEAPLDYWGQGTLVTVSSEPKSSDKTHTCPPCPPCGGGSSGGGSGGQPREPQVYTLPPSREEMTKNQVSLTCLVKGFYPSDIAVEWESNGQPENNYKTTPPVLDSDGSFFLYSKLTVDKSRWQQGNVFSCSVMHEALHNHYTQKSLSLSPG
–	1.77 nM	humanized IAB41-1 minibody (other) EIVLTQSPATLSLSPGERATLSCSARSSVSYLYWYQQKPGQAPRLLIYDTSNLASGIPDRFSGSGSGTDFTLTISRLEPEDAAVYYCQQWSDYPLTFGGGTKLEIKGSTSGGGSGGGSGGGGSSQVQLVQSGAEVKKPGASVKVSCKASGYSFANYWMHWVRQAPGQRLEWIGALYPGNVDTTYNQKFQGRVTITRDTSASTAYMELSSLRSEDTAVYYCTRMGTTLEAPLDYWGQGTLVTVSSEPKSSDKTHTCPPCPPCGGGSSGGGSGGQPREPQVYTLPPSREEMTKNQVSLTCLVKGFYPSDIAVEWESNGQPENNYKTTPPVLDSDGSFFLYSKLTVDKSRWQQGNVFSCSVMHEALHNHYTQKSLSLSPG
